Laboratory results as given in article PMC9837058, “Oncogenic mutations of PIK3CA lead to increased membrane recruitment driven by reorientation of the ABD, p85 and C-terminus” (Nature Communications, 2023).
[ ]: non-standard residue; d: D form. pY = N[C@@H](Cc1ccc(OP(=O)(O)O)cc1)C(=O)O

Experiments:
Assay in all cases: HDX-MS; purified p110α/p85α complex (9 pmol) incubated with pY peptide (1 µl of 50 µM) or buffer for 15 min on ice; exchange 3 s on ice and 3, 30, 300, 3000 s at 20 °C; 20 mM HEPES pH 7.5, 100 mM NaCl
Conditions in all cases: both partners purified
[1] = molecular target: T1, p110α-p85α complex (wild type, full length) (human, UniProt P42336 1-1068; P27986 1-724)
T1 construct: p85α, human, residues 1-724; Heterodimer of m1 and m2; also called WT p110α/p85α; full-length p110α-p85α; source: Sf9 (baculovirus), co-expressed, purified (Ni-NTA, Strep column, Q column, gel filtration); not shown: His10, N-terminal, cleaved; 2x Strep, N-terminal, cleaved

[2] = molecular target: T2, p110α H1047R-p85α complex (human, UniProt P42336 1-1068; P27986 1-724, H1047R)
T2 construct: p110α, human, full length with the oncogenic mutation H1047R; p85α, human, residues 1-724; Heterodimer of m4 and m2; also called p110α/p85α H1047R; source: Sf9 (baculovirus), co-expressed, purified (Ni-NTA, Strep column, Q column, gel filtration); not shown: His10, N-terminal, cleaved; 2x Strep, N-terminal, cleaved

[3] = molecular target: T3, p110α ΔCter (1–1048)-p85α complex (human, UniProt P42336 1-1048; P27986 1-724)
T3 construct: p85α, human, residues 1-724; Heterodimer of m7 and m2; source: Sf9 (baculovirus), co-expressed, purified (Ni-NTA, Strep column, Q column, gel filtration); not shown: His10, N-terminal, cleaved; 2x Strep, N-terminal, cleaved

Measured: binding result

T2 sequence (P42336 whole entry H1047R, chain 1 of 2, the tested form may be a part): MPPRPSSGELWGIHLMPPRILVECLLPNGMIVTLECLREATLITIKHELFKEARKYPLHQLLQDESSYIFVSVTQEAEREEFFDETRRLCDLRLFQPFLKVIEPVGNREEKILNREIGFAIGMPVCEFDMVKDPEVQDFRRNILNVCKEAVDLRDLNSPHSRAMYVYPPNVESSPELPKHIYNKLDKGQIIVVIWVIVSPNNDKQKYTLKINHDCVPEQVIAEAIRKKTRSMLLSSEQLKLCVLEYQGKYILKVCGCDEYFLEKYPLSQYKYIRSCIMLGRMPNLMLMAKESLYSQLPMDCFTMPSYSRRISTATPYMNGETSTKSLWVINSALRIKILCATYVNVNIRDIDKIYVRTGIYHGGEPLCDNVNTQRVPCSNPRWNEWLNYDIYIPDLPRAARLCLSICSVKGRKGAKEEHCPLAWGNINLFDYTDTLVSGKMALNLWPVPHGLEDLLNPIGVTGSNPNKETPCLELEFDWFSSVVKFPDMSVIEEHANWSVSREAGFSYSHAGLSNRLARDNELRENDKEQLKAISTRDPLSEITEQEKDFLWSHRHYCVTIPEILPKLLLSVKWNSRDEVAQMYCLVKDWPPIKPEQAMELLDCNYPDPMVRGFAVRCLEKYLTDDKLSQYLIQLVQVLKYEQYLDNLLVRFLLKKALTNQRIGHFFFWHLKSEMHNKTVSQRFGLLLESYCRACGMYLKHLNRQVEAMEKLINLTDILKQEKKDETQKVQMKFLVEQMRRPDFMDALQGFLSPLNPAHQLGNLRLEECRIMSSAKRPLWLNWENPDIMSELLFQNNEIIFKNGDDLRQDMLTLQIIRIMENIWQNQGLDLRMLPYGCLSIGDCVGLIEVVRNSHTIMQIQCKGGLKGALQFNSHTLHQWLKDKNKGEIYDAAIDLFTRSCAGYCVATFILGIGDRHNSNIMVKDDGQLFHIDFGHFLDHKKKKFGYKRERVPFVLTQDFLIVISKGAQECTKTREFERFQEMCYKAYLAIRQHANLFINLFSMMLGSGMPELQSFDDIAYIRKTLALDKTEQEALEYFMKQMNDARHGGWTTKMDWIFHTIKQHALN
T2 sequence (P27986 whole entry, chain 2 of 2, the tested form may be a part): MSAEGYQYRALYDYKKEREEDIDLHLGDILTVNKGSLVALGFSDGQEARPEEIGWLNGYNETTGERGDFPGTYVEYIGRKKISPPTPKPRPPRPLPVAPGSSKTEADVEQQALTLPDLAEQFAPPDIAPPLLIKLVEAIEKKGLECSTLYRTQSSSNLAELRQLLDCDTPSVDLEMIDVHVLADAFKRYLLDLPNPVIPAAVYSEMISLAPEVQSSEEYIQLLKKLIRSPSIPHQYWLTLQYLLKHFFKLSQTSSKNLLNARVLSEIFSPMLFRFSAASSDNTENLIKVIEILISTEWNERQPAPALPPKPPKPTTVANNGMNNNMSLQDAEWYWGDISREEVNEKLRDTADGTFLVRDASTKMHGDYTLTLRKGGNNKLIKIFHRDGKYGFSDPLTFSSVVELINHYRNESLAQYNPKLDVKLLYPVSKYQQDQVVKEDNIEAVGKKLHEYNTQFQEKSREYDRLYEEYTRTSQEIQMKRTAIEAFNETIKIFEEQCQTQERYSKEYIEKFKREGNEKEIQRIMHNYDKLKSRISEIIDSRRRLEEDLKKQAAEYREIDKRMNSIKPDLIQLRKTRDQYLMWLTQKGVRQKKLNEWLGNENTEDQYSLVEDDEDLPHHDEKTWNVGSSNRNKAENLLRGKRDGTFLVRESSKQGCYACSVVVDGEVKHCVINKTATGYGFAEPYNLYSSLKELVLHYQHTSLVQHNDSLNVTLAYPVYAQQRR
T3 sequence (P42336 1-1048, stated change not applied, chain 1 of 2): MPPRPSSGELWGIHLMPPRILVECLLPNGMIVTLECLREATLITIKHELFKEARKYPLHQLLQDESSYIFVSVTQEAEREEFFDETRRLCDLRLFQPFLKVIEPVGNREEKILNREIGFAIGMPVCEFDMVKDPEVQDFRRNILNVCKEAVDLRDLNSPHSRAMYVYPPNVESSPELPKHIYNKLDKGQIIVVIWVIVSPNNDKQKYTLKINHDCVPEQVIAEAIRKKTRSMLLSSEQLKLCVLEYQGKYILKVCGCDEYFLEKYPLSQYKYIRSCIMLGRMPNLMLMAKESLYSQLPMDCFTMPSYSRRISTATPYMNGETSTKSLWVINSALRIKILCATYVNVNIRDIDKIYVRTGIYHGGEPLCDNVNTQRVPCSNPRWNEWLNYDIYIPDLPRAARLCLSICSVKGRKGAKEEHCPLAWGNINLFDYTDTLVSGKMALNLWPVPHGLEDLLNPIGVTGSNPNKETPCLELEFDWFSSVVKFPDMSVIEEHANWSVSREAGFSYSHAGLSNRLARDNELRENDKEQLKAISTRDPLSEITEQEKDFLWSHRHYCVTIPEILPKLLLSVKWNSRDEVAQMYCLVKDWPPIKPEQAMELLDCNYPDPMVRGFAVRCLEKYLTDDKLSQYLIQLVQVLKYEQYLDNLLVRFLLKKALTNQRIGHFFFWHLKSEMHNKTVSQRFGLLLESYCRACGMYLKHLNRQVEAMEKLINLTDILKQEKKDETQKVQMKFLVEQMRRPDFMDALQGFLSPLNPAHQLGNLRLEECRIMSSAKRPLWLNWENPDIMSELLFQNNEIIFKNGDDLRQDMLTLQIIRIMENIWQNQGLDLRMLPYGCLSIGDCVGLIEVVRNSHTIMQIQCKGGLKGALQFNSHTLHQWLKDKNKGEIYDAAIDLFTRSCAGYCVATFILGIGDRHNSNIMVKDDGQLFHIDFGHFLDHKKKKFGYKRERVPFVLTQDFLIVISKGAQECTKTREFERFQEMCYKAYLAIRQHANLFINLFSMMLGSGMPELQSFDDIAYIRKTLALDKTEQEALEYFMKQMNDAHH
T3 sequence (P27986 whole entry, stated change not applied, chain 2 of 2, the tested form may be a part): as the sequence (P27986 whole entry, chain 2 of 2, the tested form may be a part) above
T1 sequence (P42336 whole entry, chain 1 of 2, the tested form may be a part): as the sequence (P42336 whole entry H1047R, chain 1 of 2, the tested form may be a part) above, with R1047H counted along it
T1 sequence (P27986 whole entry, chain 2 of 2, the tested form may be a part): as the sequence (P27986 whole entry, chain 2 of 2, the tested form may be a part) above

B1: PDGFR bis-phosphorylated pY peptide (PDGFR residues 735–767, pY740, pY751) (peptide)
peptide: H-ESDGG[pY]MDMSKDESID[pY]VPMLDMKGDIKYADIE-OH
SMILES: CC[C@H](C)[C@H](NC(=O)[C@H](CC(=O)O)NC(=O)[C@H](C)NC(=O)[C@H](Cc1ccc(O)cc1)NC(=O)[C@H](CCCCN)NC(=O)[C@@H](NC(=O)[C@H](CC(=O)O)NC(=O)CNC(=O)[C@H](CCCCN)NC(=O)[C@H](CCSC)NC(=O)[C@H](CC(=O)O)NC(=O)[C@H](CC(C)C)NC(=O)[C@H](CCSC)NC(=O)[C@@H]1CCCN1C(=O)[C@@H](NC(=O)[C@H](Cc1ccc(OP(=O)(O)O)cc1)NC(=O)[C@H](CC(=O)O)NC(=O)[C@@H](NC(=O)[C@H](CO)NC(=O)[C@H](CCC(=O)O)NC(=O)[C@H](CC(=O)O)NC(=O)[C@H](CCCCN)NC(=O)[C@H](CO)NC(=O)[C@H](CCSC)NC(=O)[C@H](CC(=O)O)NC(=O)[C@H](CCSC)NC(=O)[C@H](Cc1ccc(OP(=O)(O)O)cc1)NC(=O)CNC(=O)CNC(=O)[C@H](CC(=O)O)NC(=O)[C@H](CO)NC(=O)[C@@H](N)CCC(=O)O)[C@@H](C)CC)C(C)C)[C@@H](C)CC)C(=O)N[C@@H](CCC(=O)O)C(=O)O
notes: PDGFR residues 735-767; human has V where this peptide has I at two places; also called phosphopeptide; source: synthetic peptide; bought: New England Peptide
binds: [1] | [2] | [3]
